Source: the supplement of paper PMC10567573

B1: FUT8 (parent)
chain: YPSYKVREKIETVKYPTYPEAEK
B2: TFE3 (parent)
chain: ELPNIKREISETEAKALLKERQKK

Variants of: B1
Experiment: protein stability index of a GFP-peptide fusion (GPS, HEK-293T) (PSI 1-6); higher = more stable
Settings: c terminus: native
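Note: lentivirally expressed fusions sorted by FACS into six bins by GFP to DsRed ratio, PSI derived from sequencing read proportions per bin multiplied by bin number.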

Protein stability index, by site and new letter:
T12: W 3.21; L 3.14; D 4.57; A 3.92; F 3.06; H 3.25; Y 4.15; K 4.71; Q 4.94; S 3.91; N 3.62; E 4.33; V 2.14; C 4.17; R 4.05
Y4: A 4.86; H 4.93; C 4.13; V 4.52; Q 4.52; E 4; D 4.57; M 4.88; S 4.59; K 5.03; T 4.91; N 4.47; G 5.38; F 4.64; R 4.29; I 4.16
E11: L 4.01; Q 4.27; F 3.15; T 3.5; V 3.59; I 3.34; P 4.12; H 3.8; K 4.32; A 4.3
E22: K 4.54; Y 2.93; P 4.46; V 1.9; A 3.28; D 4.31; M 3.45; I 2.17; R 4.2; T 3.32; C 1.66; H 4.28
K23: Y 2.9; L 3; Q 4.04; C 3.19; D 4.61; W 2.53; N 3.95; A 2.92; H 4.15; M 2.94; S 3.46; T 3.36; F 3.68; G 3.96
V13: Q 4.49; Y 3.72; H 3.97; K 4.62; G 4.66; D 4.64; T 4.18; L 4.29; M 3.7; S 4.69; N 4.26; F 3.77; W 3.04
K5: F 2.91; I 4.45; L 4.12; R 4.32; H 4.34; W 2.49; G 4.29; C 4.2; V 4.16; P 4.61; A 3.92; Y 3.62; S 4.54; T 4.6
A21: V 3.89; S 4.1; C 3.74; E 4.97; P 4.04; H 4.56; R 3.43; T 3.67; Y 3.67; N 3.45; I 3.85; W 4.21; K 3.26; M 4.7
P2: C 3.11; E 4.52; T 3.35; S 4.78; L 3.84; R 4.76; V 2.75; K 4.35; A 3.58; Y 3.73; W 3.32; F 3.51; M 3.58; N 3.9; G 4.05
Y1: C 4.41; I 5.15; N 5.08; D 5.3; P 5.38; Q 4.96; W 4.46; E 4.99; H 4.98; S 4.96; R 4.58; L 5.16; M 4.7; A 5.42; T 4.92
E8: I 2.62; A 3.96; Y 2.28; L 1.99; M 2.69; T 3.43; G 3.92; R 3.74; Q 4.01; K 3.59; S 3.57; N 4.27; D 4.26; P 3.72; F 2.02
S3: R 3.79; N 4.3; F 3.25; A 4.02; L 4.7; G 3.92; E 4.18; P 3.35; D 4.69; I 4.44; W 3.02; K 4.78; V 3.66; C 4.08; T 4.19
I10: A 4.19; K 4.57; F 4.36; V 4.46; M 4.35; T 4.97; N 4.87; C 4.21; P 4.09; Y 4.29; H 4.27; R 4.56; S 4.46; D 4.71; Q 4.17; E 4.61
V6: F 2.83; K 4.55; N 4.62; Y 4.15; H 4.58; I 3.89; D 4.76; C 3.91; P 4.62; T 4.25; G 4.18; A 4.67; R 4.36; S 4.48; L 4.69
Y15: H 4.72; M 4.48; V 4.18; T 3.77; F 4.49; Q 4.77; E 4.59; C 3.88; L 4.33; P 4.45; R 4.22; S 4.64; I 4.58; K 5.03; D 5.2
K9: N 4.38; H 3.62; S 4.28; M 4.24; V 3.23; A 4.31; T 4.44; R 3.98; D 4.14; Q 4.25; E 4.5; F 2.64; G 4.12; C 4.43; Y 2.56
R7: K 4.16; P 4.67; T 3.96; F 2.52; H 3.84; S 4.49; L 4.48; A 4.54; Q 4.45; G 4.7; V 3.85; N 4.59; Y 3.6; C 3.76; W 2.79
P16: H 4.06; W 2.78; T 4.13; V 4.6; Q 4.14; C 3.7; L 4.03; N 4.12; M 4; K 4.19; R 3.95; A 3.89; F 4.79; E 4.29
T17: P 4.46; E 4.43; R 4.34; M 3.77; F 3.45; Y 2.87; Q 4.3; V 4; C 3.8; G 4.02; D 3.7; A 4.56; H 4.41; N 4.75
Y18: G 3.52; H 4.31; T 4.7; F 3.89; W 3.63; C 4.98; L 3.87; V 4.24; M 4.15; S 4.68; R 5.1; I 3.96; Q 4.54; P 5.06; N 4.63
P19: F 2.01; D 3.66; G 3.94; M 3.04; S 3.94; T 3.45; I 3.59; A 3.79; Y 1.25; K 4.19; C 3; H 3.18; W 2.37
E20: Q 3.61; V 3.48; T 3.87; S 3.56; D 4.62; Y 3.52; G 4.26; A 3.93; F 3.39; H 3.97; M 3.55; R 3.63; W 2.9; K 4.69; I 2.88
K14: A 4.17; N 4.62; C 4.18; T 3.61; P 4.09; Q 4.21; R 4.27; M 3.85; S 4.44; L 2.97; H 3.95; F 2.73; G 4.98; I 3.88

Variants of: B2
Experiment: as above
Settings: c terminus: a fixed tail appended

Protein stability index: each site, then its substitutions
K15: L 2.08
T12: V 4.04
A14: K 2.75
R7: S 2.49
E1: D 2.65
